Reference: publication doi:10.1101/2020.02.21.960245 (bioRxiv, 2020)
Like-named read-outs stand apart in the source and are kept apart here.

B1: HisFlagRec114 (natural protein)
chain: MYEYCSVVIKKYSKYTIPSFAPNGFQSMLEPPQIDKWQHLSANCTLQFRVLLMDSRQILINVVLNNSTLLENIRLPLGDNQDLIQFSCKSPIISCKYISEEFGPRMLRRFQMNLPNDVEFNRTVVSLKNLNFVLRTARTSIAQSTITSQVQGNNNGTKVCFTEGPKVSSYTNPNTQFQTQNMIMDFSQRYQEESERESNNRSNITLPHDSIQIAQQIWPNTDLNVVQSSQDLNTPMATQTVLGRPESLIVQPLEVSQSPPNTTNCLPNAENKKKKVDTTSDFTSRKEIALCKTGLLETIHIPKERESQMQSVTGLDATPTIIWSPGKDNTAKKNTSNKKNIDDKLTNPQKSGNTHTPDRNKEVLPNGTLNETRKEASPSEGLTIRVKNVNRNASRKISKRLIKEKLKDEEFMKWVNKVETVLNKMFEK

How the values were obtained:
cross-linking = molecular target: the molecule itself; assay: cross-linking
SEC-MALS [1] = molecular target: the molecule itself; assay: SEC-MALS
HisFlagRec114 = molecular target: B1; assay: SEC-MALS
untagged Rec114 = molecular target: T1, untagged Rec114 (S. cerevisiae, UniProt P32841 1-428); assay: SEC-MALS
T1 sequence: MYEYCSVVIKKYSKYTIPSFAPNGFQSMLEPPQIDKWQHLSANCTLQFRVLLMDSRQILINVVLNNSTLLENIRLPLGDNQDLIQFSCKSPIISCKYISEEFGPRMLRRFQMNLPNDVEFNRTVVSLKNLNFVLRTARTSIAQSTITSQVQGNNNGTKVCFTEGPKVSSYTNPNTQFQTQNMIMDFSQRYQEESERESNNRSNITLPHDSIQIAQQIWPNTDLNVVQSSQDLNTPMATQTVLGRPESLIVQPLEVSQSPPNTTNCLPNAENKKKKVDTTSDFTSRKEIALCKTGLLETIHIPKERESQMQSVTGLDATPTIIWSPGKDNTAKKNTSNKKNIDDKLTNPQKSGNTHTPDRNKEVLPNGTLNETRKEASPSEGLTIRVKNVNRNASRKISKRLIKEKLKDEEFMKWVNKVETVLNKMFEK

SEC-MALS [2] = molecular target: the molecule itself; assay: SEC-MALS; remark: listed apart in the source
Rec114(375-428) = molecular target: T2, Rec114(375-428) (S. cerevisiae, UniProt P32841 375-428); assay: SEC-MALS
T2 sequence: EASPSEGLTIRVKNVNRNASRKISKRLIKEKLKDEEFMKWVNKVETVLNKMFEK

B1
binding result (cross-linking): binds

B2: untagged wild-type Rec114(325-428) (domain or fragment)
chain: PGKDNTAKKNTSNKKNIDDKLTNPQKSGNTHTPDRNKEVLPNGTLNETRKEASPSEGLTIRVKNVNRNASRKISKRLIKEKLKDEEFMKWVNKVETVLNKMFEK
stoichiometry N (SEC-MALS [1]): 2

B3: coiled-coil domain of Mer2 (residues 77-227) (domain or fragment)
chain: IKVLNENSKTLCKSLNKFNQLLEQDAATNGNVKTLIKDLASQIENQLDKVSTAMLSKGDEKKTKSDSSYRQVLVEEISRYNSKITRHVTNKQHETEKSMRCTQEMLFNVGSQLEDVHKVLLSLSKDMHSLQTRQTALEMAFREKADHAYDR
stoichiometry N (SEC-MALS [1]): 4

B4: MBPMei4 (natural protein)
chain: MSRGKLEDMEQKETSEVDWIICFALIQSRNPTLWKRALSRKKGDVEDVGALKSEKNLKINPRENSKHIYKWVAPFENGFLNNKSLFAHLEPIYNFLCQNKYKSFEDAVGLKELQSFSKDVSTADINNWFLPRYKILLKILSLKTKEIDFRGLSQVFQTLQILLVSHYSHRIDSDSSFKRTLIDVHVFNFIAKFLFNRILLKKNQNDPKWLQNFYDQGDGKHLCDKVDYKRLCSLHFTLIYSIINIQLIKIKTNQTFEPQILKYVSVLKLIEHILIIIESLIHVLIRFVSKHKLICINRKKAYCRVYLERELSLKKTYLKNFYSVISGVPEKELGGLLKILKIVILSLLETFESIEWQHLKPFLEKFPAHEISLQKKRKYIQAALLITAERNLIARFRLSRWFNETENI
stoichiometry N (HisFlagRec114): 2 Rec114 per Mei4

B5: untagged Mei4 (natural protein)
chain: MSRGKLEDMEQKETSEVDWIICFALIQSRNPTLWKRALSRKKGDVEDVGALKSEKNLKINPRENSKHIYKWVAPFENGFLNNKSLFAHLEPIYNFLCQNKYKSFEDAVGLKELQSFSKDVSTADINNWFLPRYKILLKILSLKTKEIDFRGLSQVFQTLQILLVSHYSHRIDSDSSFKRTLIDVHVFNFIAKFLFNRILLKKNQNDPKWLQNFYDQGDGKHLCDKVDYKRLCSLHFTLIYSIINIQLIKIKTNQTFEPQILKYVSVLKLIEHILIIIESLIHVLIRFVSKHKLICINRKKAYCRVYLERELSLKKTYLKNFYSVISGVPEKELGGLLKILKIVILSLLETFESIEWQHLKPFLEKFPAHEISLQKKRKYIQAALLITAERNLIARFRLSRWFNETENI
stoichiometry N (untagged Rec114): 2 Rec114 per Mei4

B6: untagged Mer2 (natural protein)
chain: MVARGRTDEISTDVSEANSEHSLMITETSSPFRSIFSHSGKVANAGALEESDKQILEWAGKLELESMELRENSDKLIKVLNENSKTLCKSLNKFNQLLEQDAATNGNVKTLIKDLASQIENQLDKVSTAMLSKGDEKKTKSDSSYRQVLVEEISRYNSKITRHVTNKQHETEKSMRCTQEMLFNVGSQLEDVHKVLLSLSKDMHSLQTRQTALEMAFREKADHAYDRPDVSLNGTTLLHDMDEAHDKQRKKSVPPPRMMVTRSMKRRRSSSPTLSTSQNHNSEDNDDASHRLKRAARTIIPWEELRPDTLESEL
stoichiometry N (SEC-MALS [2]): 4

B7: Mei4(1-43) (domain or fragment)
chain: MSRGKLEDMEQKETSEVDWIICFALIQSRNPTLWKRALSRKKG
stoichiometry N (Rec114(375-428)): 2 Rec114 per Mei4
